Laboratory results published in publication PMC10630519, “Structural insights into the modulation of coronavirus spike tilting and infectivity by hinge glycans” (Nature Communications, 2023).

Biological target: the molecule itself
Assay: cryo-EM structure; cryoET and subtomogram averaging of spikes on vitrified, chemically unfixed HCoV-NL63 virions in NTE buffer (20 mM Tris pH 8.0, 120 mM NaCl, 1 mM EDTA); 18,356 spike subvolumes; C3 symmetry imposed; focused classification of RBD and domain 0

B1: human coronavirus NL63 (HCoV-NL63) spike glycoprotein (S) (natural protein)
chain: CNSNANLSMLQLGVPDNSSTIVTGLLPTHWFCANQSTSVYSANGFFYIDVGNHRSAFALHTGYYDANQYYIYVTNEIGLNASVTLKICKFSRNTTFDFLSNASSSFDCIVNLLFTEQLGAPLGITISGETVRLHLYNVTRTFYVPAAYKLTKLSVKCYFNYSCVFSVVNATVTVNVTTHNGRVVNYTVCDDCNGYTDNIFSVQQDGRIPNGFPFNNWFLLTNGSTLVDGVSRLYQPLRLTCLWPVPGLKSSTGFVYFNATGSDVNCNGYQHNSVVDVMRYNLNFSANSLDNLKSGVIVFKTLQYDVLFYCSNSSSGVLDTTIPFGPSSQPYYCFINSTINTTHVSTFVGILPPTVREIVVARTGQFYINGFKYFDLGFIEAVNFNVTTASATDFWTVAFATFVDVLVNVSATNIQNLLYCDSPFEKLQCEHLQFGLQDGFYSANFLDDNVLPETYVALPIYYQHTDINFTATASFGGSCYVCKPHQVNISLNGNTSVCVRTSHFSIRYIYNRVKSGSPGDSSWHIYLKSGTCPFSFSKLNNFQKFKTICFSTVEVPGSCNFPLEATWHYTSYTIVGALYVTWSEGNSITGVPYPVSGIREFSNLVLNNCTKYNIYDYVGTGIIRSSNQSLAGGITYVSNSGNLLGFKNVSTGNIFIVTPCNQPDQVAVYQQSIIGAMTAVNESRYGLQNLLQLPNFYYVSNGGNNCTTAVMTYSNFGICADGSLIPVRPRNSSDNGISAIITANLSIPSNWTTSVQVEYLQITSTPIVVDCATYVCNGNPRCKNLLKQYTSACKTIEDALRLSAHLETNDVSSMLTFDSNAFSLANVTSFGDYNLSSVLPQRNIRSSRIAGRSALEDLLFSKVVTSGLGTVDVDYKSCTKGLSIADLACAQYYNGIMVLPGVADAERMAMYTGSLIGGMVLGGLTSAAAIPFSLALQARLNYVALQTDVLQENQKILAASFNKAINNIVASFSSVNDAITQTAEAIHTVTIALNKIQDVVNQQGSALNHLTSQLRHNFQAISNSIQAIYDRLDSIQADQQVDRLITGRLAALNAFVSQVLNKYTEVRGSRRLAQQKINECVKSQSNRYGFCGNGTHIFSIVNSAPDGLLFLHTVLLPTDYKNVKAWSGICVDGIYGYVLRQPNLVLYSDNGVFRVTSRVMFQPRLPVLSDFVQIYNCNVTFVNISRVELHTVIPDYVDVNKTLQEFAQNLPKYVKPNFDLTPFNLTYLNLSSELKQLEAKTASLFQTTVELQGLIDQINSTYVDLKLLNRFENYIKWPWWVWLIISVVFVVLLSLLVFCCLSTGCCGCCNCLTSSMRGCCDCGSTKLPYYEFEKVHVQ
modifications: N-linked glycans at 39 N-glycosylation sites (among them N240, N354, N358, N426, N486, N506, N512, N749, N844, N852, N1111, N1196, N1201, N1218, N1242, N1247, N1277)
notes: Spike glycoprotein S of human coronavirus NL63 (virus from BEI Resources NR-470), full-length S in the viral envelope; not cleaved at S1/S2 (single band of about 250 kD); Native membrane-anchored trimer on virions; The model covers the crown, residues 1-1224; the stalk (1216-1297) is only a predicted model; also called S trimer; S protomer; source: no chemical fixation
In the case of B1, the “stoichiometry N” value is reported as 3.
